Assay results reported in patent US20190169289A1 (Scripps Research, published 2019).

T1: anti-GCN4 (52SR4 scFv) sCAR with IgG4m hinge
T1 construct: disulfide dimer by western blot; also called short-dimeric sCAR; IgG4m sCAR
T1 chain: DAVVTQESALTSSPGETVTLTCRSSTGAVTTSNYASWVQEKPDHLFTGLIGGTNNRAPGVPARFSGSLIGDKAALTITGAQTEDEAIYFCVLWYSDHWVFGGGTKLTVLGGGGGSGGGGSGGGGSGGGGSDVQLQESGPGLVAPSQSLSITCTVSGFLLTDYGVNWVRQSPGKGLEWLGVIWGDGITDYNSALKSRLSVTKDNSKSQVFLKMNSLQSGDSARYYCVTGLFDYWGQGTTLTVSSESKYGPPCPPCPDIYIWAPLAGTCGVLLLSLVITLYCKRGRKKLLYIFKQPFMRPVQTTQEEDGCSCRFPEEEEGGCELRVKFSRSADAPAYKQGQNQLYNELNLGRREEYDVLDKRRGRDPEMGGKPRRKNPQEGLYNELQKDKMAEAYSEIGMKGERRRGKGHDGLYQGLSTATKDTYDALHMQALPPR

B1: anti-CD22 (clone hLL2) Fab HCCT switch (Fab, V domains shown)
VH: QVQLVQSGAEVKKPGSSVKVSCKASGYTFTSYWLHWVRQAPGQGLEWIGYINPRNDYTEYNQNFKDKATITADESTNTAYMELSSLRSEDTAFYFCARRDITTFYWGQGTTVTVSS
VL: DIQLTQSPSSLSASVGDRVTMSCKSSQSVLYSANHKNYLAWYQQKPGKAPKLLIYWASTRESGVPSRFSGSGSGTDFTFTISSLQPEDIATYYCHQYLSSWTFGGGTKLEIKR
B2: anti-CD22 (clone hLL2) Fab NTBV switch (Fab, V domains shown)
VH: B1 VH
VL: B1 VL
B3: anti-CD22 (clone hLL2) Fab LCCT switch (Fab)
light: DIQLTQSPSSLSASVGDRVTMSCKSSQSVLYSANHKNYLAWYQQKPGKAPKLLIYWASTRESGVPSRFSGSGSGTDFTFTISSLQPEDIATYYCHQYLSSWTFGGGTKLEIKRTVAAPSVFIFPPSDEQLKSGTASVVCLLNNFYPREAKVQWKVDNALQSGNSQESVTEQDSKDSTYSLSSTLTLSKADYEKHKVYACEVTHQGLSSPVTKSFNRGECGGGGSNYHLENEVARLKKL
heavy: QVQLVQSGAEVKKPGSSVKVSCKASGYTFTSYWLHWVRQAPGQGLEWIGYINPRNDYTEYNQNFKDKATITADESTNTAYMELSSLRSEDTAFYFCARRDITTFYWGQGTTVTVSSARTKGPSVFPLAPSSKSTSGGTAALGCLVKDYFPEPVTVSWNSGALTSGVHTFPAVLQSSGLYSLSSVVTVPSSSLGTQTYICNVNHKPSNTKVDKKVEPKSC
B4: anti-CD22 (clone hLL2) Fab LCNT switch (Fab, V domains shown)
VH: B1 VH
VL: B1 VL
B5: Peptide 4: AAALENEVARLKKL (peptide)
peptide: AAALENEVARLKKL
B6: Peptide 5: AAAAENEVARLKKL (peptide)
peptide: AAAAENEVARLKKL
B7: Peptide 8: NYHLENEVARLAAA (peptide)
peptide: NYHLENEVARLAAA
B8: Peptide 7: NYHLENEVARLKAA (peptide)
peptide: NYHLENEVARLKAA
B9: Peptide 6: NYHLENEVARLKKA (peptide)
peptide: NYHLENEVARLKKA

biological target: T2, CD22 (UniProt P20273 20-847, limits assumed); test: cell-based or functional assay

Which results are given for B1?
cytotoxicity at 0.01 pM: 1.3; cytotoxicity at 0.1 pM: 6.05; cytotoxicity at 1 pM: 7.67; cytotoxicity at 10 pM: 8.27; cytotoxicity at 100 pM: 7.35; cytotoxicity at 1000 pM: 25; cytotoxicity at 10000 pM: 45.1

What does the source list for B2?
cytotoxicity at 0.01 pM: 1.52; cytotoxicity at 0.1 pM: 2.19; cytotoxicity at 1 pM: 4.2; cytotoxicity at 10 pM: 2.07; cytotoxicity at 1000 pM: -2.07; cytotoxicity at 10000 pM: 1.5

How did the “cytotoxicity at 0.01 pM” value turn out when B3 was run?
The value was -2.13.

What about the “cytotoxicity at 0.1 pM” value of the same binder?
Its value is -0.84.

And the “cytotoxicity at 1 pM” value?
Its value is -0.01.

And the “cytotoxicity at 10 pM” value?
The value was 4.8.

And the “cytotoxicity at 100 pM” value?
Its value is 23.8.

What about the “cytotoxicity at 1000 pM” value of the same binder?
Its value is 49.6.

What about the “cytotoxicity at 10000 pM” value of the same binder?
Its value is 56.5.

biological target: T2, CD22; test: cell-based or functional assay; remark: another data set of the same source

With B1 as the binder, how does the EC50 of cytotoxicity read?
The EC50 of cytotoxicity was 1.34 nM.

Which EC50 of cytotoxicity does the source give for B2 here?
The EC50 of cytotoxicity was 0.135 nM.

With B4 as the binder, how does the EC50 of cytotoxicity read?
The EC50 of cytotoxicity was 6.56 nM.

B3 was tested. Which EC50 of cytotoxicity did it give?
Its EC50 of cytotoxicity is 0.132 nM.

Biological target: T1, anti-GCN4 (52SR4 scFv) sCAR with IgG4m …
Test: flow cytometry competition on CAR-T cells with the GCN4 CAR (SEQ ID NO. 74): 1 nM labelled GCN4 peptide (GCN4-AF488) as competitor, unlabelled peptide titrated, MFI of the labelled peptide read
Text: Un-labelled peptide binding efficiency was indirectly shown by measuring the mean fluorescence intensity (MFI) staining with the labelled peptide.
Cells were then washed twice with cold PBS to remove the free labelled peptide before being analyzed using the BD Accuri flow cytometer.

Does B5 bind?
Result: no binding (tested: 10^3 nM)

Does B6 bind?
Result: no binding (tested: 10^3 nM)

Does B7 bind?
Result: binds

Does B8 bind?
Result: binds

Does B9 bind?
Result: binds
